{"source": "patent US7838294B2", "about": "“Inhibitors of the JNK signal transduction pathway and methods of use” (University of Massachusetts, priority 1997, dated 2010)", "key": {"p38 MAP kinase": {"biological_target": "T1, p38 MAP kinase (Homo sapiens, UniProt Q16539)", "T1 construct": "expressed in transfected cells", "T1 sequence (Q16539 whole entry, the tested form may be a part, canonical isoform)": "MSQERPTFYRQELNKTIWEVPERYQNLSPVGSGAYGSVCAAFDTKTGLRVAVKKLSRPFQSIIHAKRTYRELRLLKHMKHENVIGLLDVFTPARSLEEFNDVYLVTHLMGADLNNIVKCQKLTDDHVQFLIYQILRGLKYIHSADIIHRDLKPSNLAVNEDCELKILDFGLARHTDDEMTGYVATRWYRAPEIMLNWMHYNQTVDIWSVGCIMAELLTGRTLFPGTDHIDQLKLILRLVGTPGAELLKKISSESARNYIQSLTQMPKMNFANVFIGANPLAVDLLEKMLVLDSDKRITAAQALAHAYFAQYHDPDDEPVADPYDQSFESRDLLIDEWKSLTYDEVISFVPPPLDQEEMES", "experiment": "GST-fusion pull-down from cell lysates, Flag immunoblot: p38 MAP kinase", "type": "binding", "settings": "control experiment, Flag-p38 lysate", "protocol": "To test whether JIP-1 binding to JNK is also isoform-dependent, a binding assay was utilized. Cell lysates (1 ml in TLB) containing JNK1, JNK2, or p38 MAP kinase, each tagged with the Flag epitope, were incubated with 5 μg GST-fusion proteins pre-bound to 10 μl glutathione-Sepharose. The GST fusion proteins used contain residues 127-202 (SEQ ID NO:15), 203-281 (SEQ ID NO:16), 164-240 (SEQ ID NO:17), or 127-281 (SEQ ID NO:4) of JIP-1. The GST-ATF2 fusion protein contains residues 1-109 of ATF2, and the GST-Jun fusion protein contains residues 1-79 of c-Jun. After incubation for one hour at 4° C. and three washes with TLB, bound proteins were detected by protein immunoblot analysis with the M2 monoclonal antibody, which is specific for the Flag epitope. Dérijard, et al., supra; Sluss et al., supra; Gupta et al., supra. […] This finding is consistent with the results of previous studies. In contrast, when GST-JIP-1 fusion proteins containing residues 127-202 or 127-281 of JIP-1 were tested in the assay, these proteins bound both JNK1 and JNK2."}, "JNK": {"tested_on": "JNK", "experiment": "Immune complex protein kinase assay: JNK, substrate GST-Jun", "type": "biochemical, Chinese hamster", "settings": "in vitro, 3 μg GST-Jun, 30 minutes at 30° C.", "protocol": "(§1) To test whether JIP-1 competes with Jun and ATF2 for interaction with JNK, the effect of JIP-1 on transcription factor-mediated phosphorylation of exogenous substrates was analyzed using an in vitro protein kinase assay. In these experiments, Chinese hamster ovary (CHO) cells were serum-starved for one hour. In some experiments, the cells were treated with 10 ng/ml mouse interleukin 1 or 100 nM phorbol myristic acetate. JNK, p38, and ERK protein kinase activity was measured in an immune complex kinase assay using 3 μg of the substrates GST-Jun, GST-ATF2, and myelin basic protein (MBP), respectively. Protein kinase assays were performed using 40 μl 20 mM Hepes (pH 7.4), 20 mM MgCl2, 20 mM β-glycerophosphate, 2 mM dithiothreitol, 0.1 mM sodium orthovanadate, 50 μM [γ-^32P]ATP (10 Ci/mmol). After incubation for 30 minutes at 30° C., phosphorylation of substrates was analyzed by polyacrylamide gel electrophoresis and autoradiography."}, "JNK1": {"biological_target": "T2, JNK1 (Homo sapiens, UniProt P45983)", "T2 construct": "expressed in transfected cells", "T2 sequence (P45983 1-384 isoform P45983-2)": "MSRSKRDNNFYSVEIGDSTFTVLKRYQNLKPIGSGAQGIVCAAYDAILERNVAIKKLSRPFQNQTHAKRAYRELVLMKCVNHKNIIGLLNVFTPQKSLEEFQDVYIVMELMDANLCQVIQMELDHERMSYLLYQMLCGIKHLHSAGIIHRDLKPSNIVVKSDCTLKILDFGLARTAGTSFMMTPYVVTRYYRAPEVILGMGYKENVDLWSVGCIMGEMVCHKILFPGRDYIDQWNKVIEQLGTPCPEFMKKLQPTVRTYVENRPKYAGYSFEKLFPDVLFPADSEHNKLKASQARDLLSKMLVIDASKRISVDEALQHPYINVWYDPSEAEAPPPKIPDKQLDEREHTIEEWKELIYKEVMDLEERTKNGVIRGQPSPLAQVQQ", "experiment": "Co-immunoprecipitation of JIP-1 with JNK1 in transfected COS-1 cells", "type": "binding", "protocol": "To test whether JIP-1 and JNK interact in vivo, co-immunoprecipitation analysis was performed. COS-1 cells were mock-transfected or transfected with JIP-1 and JNK1 expression vectors. Constructs expressing epitope (HA) tagged JNK1 have been described previously. Dérijard et al., supra; Sluss et al., supra; Gupta et al., supra. Mammalian JIP-1 expression vectors were constructed by subcloning the JIP-1 cDNA into the XbaI and HindIII sites of pCMV5 and the HindIII and EcoRI sites of pcDNA3 (Invitrogen Inc.). DNA encoding the Flag epitope, -Asp-Tyr-Lys-Asp-Asp-Asp-Asp-Lys- (SEQ ID NO:14) (Immunex Corp.), was inserted into JIP-1 cDNA between the DNA encoding the first two codons of JIP-1 using insertional overlapping polymerase chain reaction (PCR). Ho et al., Gene, 77:51 (1989). Bacterial JIP-1 expression vectors were constructed by subcloning PCR fragments of the JIP-1 cDNA into the EcoRI and XbaI sites of pGEX-3× (Pharmacia LKB Biotechnology Inc.). GST fusion proteins were purified by affinity chromatography on GSH-agarose as described previously. Smith et al., Gene, 67:31 (1988). […]\nFor the co-immunoprecipitation experiments, transfected or mock-transfected cells were irradiated with or without UV-C (40 J/m^2) and incubated for one hour. […] Immune complexes were detected with a second antibody coupled to horseradish peroxidase and enhanced chemiluminescence (Amersham International PLC)."}, "p38 [1]": {"tested_on": "p38", "experiment": "Immune complex protein kinase assay: p38, substrate GST-ATF2", "type": "biochemical, Chinese hamster", "settings": "in vitro, 3 μg GST-ATF2", "protocol": "as §1"}, "p38 [2]": {"biological_target": "p38 (Homo sapiens, UniProt Q16539)", "sequence (Q16539 whole entry)": "as the sequence (Q16539 whole entry, the tested form may be a part, canonical isoform) above", "experiment": "Co-immunoprecipitation of JIP-1 with p38 (specificity control)", "type": "binding", "settings": "control experiment"}}, "data": [{"molecule": "JIP-1: 660 amino acid murine cytoplasmic protein that specifically binds JNK (protein) MAERESGLGGGAASPPAASPFLGLHIASPPNFRLTHDISLEEFEDEDLSEITDECGISLQCKDTLSLRPPRAGLLSAGSSGSAGSRLQAEMLQMDLIDAAGDTPGAEDDEEEEDDELAAQRPGVGPPKAESNQDPAPRSQGQGPGTGSGDTYRPKRPTTLNLFPQVPRSQDTLNNNSLGKKHSWQDRVSRSSSPLKTGEQTPPHEHICLSDELPPQGSPVPTQDRGTSTDSPCRRSAATQMAPPSGPPATAPGGRGHSHRDRIHYQADVRLEATEEIYLTPVQRPPDPAEPTSTFMPPTESRMSVSSDPDPAAYSVTAGRPHPSISEEDEGFDCLSSPERAEPPGGGWRGSLGEPPPPPRASLSSDTSALSYDSVKYTLVVDEHAQLELVSLRPCFGDYSDESDSATVYDNCASASSPYESAIGEEYEEAPQPRPPTCLSEDSTPDEPDVHFSKKFLNVFMSGRSRSSSAESFGLFSCVINGEEHEQTHRAIFRFVPRHEDELELEVDDPLLVELQAEDYWYEAYNMRTGARGVFPAYYAIEVTKEPEHMAALAKNSCVLEISVRGVKIGVKADDALEAKGNKCSHFFQLKNISFCGYHPKNNKYFGFITKHPADHRFACHVFVSEDSTKALAESVGRAFQQFYKQFVEYTCPTEDIYLE", "values": [{"measurement": "binding to p38 MAP kinase", "setting": "p38 MAP kinase", "result": "did not bind"}, {"measurement": "phosphorylation of c-Jun by JNK", "setting": "JNK", "result": "markedly inhibited"}, {"measurement": "co-immunoprecipitation of JIP-1 with JNK1", "setting": "JNK1; COS-1 cells transfected with Flag-JIP-1 and HA-JNK1, protein immunoblot", "result": "detected in JNK1 immunoprecipitates"}, {"measurement": "change in amount of JNK/JIP-1 complex on exposure to UV radiation", "setting": "JNK1; UV-C 40 J/m2, one hour, co-immunoprecipitation", "result": "no significant change"}, {"measurement": "phosphorylation of substrate by p38", "setting": "p38 [1]", "result": "no significant change"}, {"measurement": "co-immunoprecipitation of JIP-1 with p38", "setting": "p38 [2]", "result": "did not co-immunoprecipitate"}]}]}
